Test results reported in patent US20090142372A1.

Legend:
[1] = biological target: fusion peptide of pIUSind-mBSP5x anchored on Listeria (human; Listeria monocytogenes); assay: flow cytometry of carrier bacteria displaying the eBSP 5-fold multimer, before deactivation
[2] = biological target: vBSP-2 anchored on carrier bacteria (human; Listeria monocytogenes) (UniProt P21815); assay: flow cytometry of carrier bacteria displaying vBSP-2, after deactivation
[3] = biological target: vBSP-3 anchored on carrier bacteria (human; Listeria monocytogenes) (UniProt P21815); assay: flow cytometry of deactivated carrier bacteria displaying vBSP-3, grown in minimal medium (FIG. 5B)
[4] = biological target: fusion peptide of pIUSind-mBSP5x anchored on Listeria (human; Listeria monocytogenes); assay: flow cytometry of carrier bacteria displaying the eBSP 5-fold multimer, after deactivation
[5] = biological target: fusion peptide of pIUSind-mBSP1x anchored on Listeria (human; Listeria monocytogenes) (UniProt Q723K6); assay: flow cytometry of carrier bacteria displaying eBSP monomer, BHI and minimal medium (FIG. 9, 10; tumor-epitope specific rabbit antibodies)
[6] = biological target: fusion peptide of pIUSind-mBSP5x anchored on Listeria (human; Listeria monocytogenes); assay: flow cytometry of deactivated carrier bacteria displaying the 5-fold multimer (FIG. 11; rabbit tumor eBSP antiserum)
[7] = biological target: fusion peptide of pIUSind-mBSP4x anchored on Listeria (human; Listeria monocytogenes) (UniProt Q723K6); assay: flow cytometry of deactivated carrier bacteria displaying the 4-fold multimer (FIG. 11; rabbit tumor eBSP antiserum)
[8] = biological target: fusion peptide of pIUSind-mBSP5x anchored on Listeria (human; Listeria monocytogenes); assay: flow cytometry of carrier bacteria displaying eBSP pentamer, BHI and minimal medium (FIG. 9, 10; tumor-epitope specific rabbit antibodies)
[9] = biological target: fusion peptide of pIUSind-mBSP6x anchored on Listeria (human; Listeria monocytogenes); assay: flow cytometry of deactivated carrier bacteria displaying the 6-fold multimer (FIG. 11; rabbit tumor eBSP antiserum)
[10] = biological target: fusion peptide of pIUSind-mBSP3x anchored on Listeria (human; Listeria monocytogenes) (UniProt Q723K6); assay: flow cytometry of deactivated carrier bacteria displaying the 3-fold multimer (FIG. 11; rabbit tumor eBSP antiserum)
[11] = biological target: vBSP-4 anchored on carrier bacteria (human; Listeria monocytogenes) (UniProt P21815); assay: flow cytometry of carrier bacteria displaying vBSP-4, after deactivation
[12] = biological target: vBSP-3 anchored on carrier bacteria (human; Listeria monocytogenes) (UniProt P21815); assay: flow cytometry of carrier bacteria displaying vBSP-3, after deactivation
[13] = biological target: vBSP-4 anchored on carrier bacteria (human; Listeria monocytogenes) (UniProt P21815); assay: flow cytometry of carrier bacteria displaying vBSP-4, before deactivation
[14] = biological target: vBSP-3 anchored on carrier bacteria (human; Listeria monocytogenes) (UniProt P21815); assay: flow cytometry of carrier bacteria displaying vBSP-3, grown in BHI and minimal media, before deactivation (FIG. 4A and B)
[15] = biological target: vBSP-2 anchored on carrier bacteria (human; Listeria monocytogenes) (UniProt P21815); assay: flow cytometry of carrier bacteria displaying vBSP-2, before deactivation
[16] = biological target: vBSP-3 anchored on carrier bacteria (human; Listeria monocytogenes) (UniProt P21815); assay: flow cytometry of carrier bacteria displaying vBSP-3, before deactivation
[17] = biological target: fusion peptide of pIUSind-mBSP6x anchored on Listeria (human; Listeria monocytogenes); assay: flow cytometry of carrier bacteria displaying the eBSP 6-fold multimer, after deactivation
[18] = biological target: fusion peptide of pIUSind-mBSP6x anchored on Listeria (human; Listeria monocytogenes); assay: flow cytometry of carrier bacteria displaying the eBSP 6-fold multimer, before deactivation
[19] = biological target: eBSP tumor epitope fused to a bacterial carrier protein, anchored on carrier bacteria (human; Listeria monocytogenes); assay: flow cytometry of carrier bacteria displaying the eBSP-carrier fusion (FIG. 7B)

Anti-Human Bone Sialoprotein (amino acids 108-122) Antibody, polyclonal antiserum, Immundiagnostik AG, Cat.-No. A4219.2, Lot H3150503
anchoring efficiency (proportion of positive bacteria in FACS) [1]: 42.5%
anchoring efficiency (proportion of positive bacteria in FACS) [2]: 65%
anchoring efficiency (proportion of positive bacteria in FACS) [3]: 41%
anchoring efficiency (proportion of positive bacteria in FACS) [4]: 40.1%
anchoring efficiency (proportion of positive bacteria in FACS) [5]: < 10%
anchoring efficiency (proportion of positive bacteria in FACS) [6]: > 40%
anchoring efficiency (proportion of positive bacteria in FACS) [7]: > 40%
anchoring efficiency (proportion of positive bacteria in FACS) [8]: > 40%
anchoring efficiency (proportion of positive bacteria in FACS) [9]: > 40%
anchoring efficiency (proportion of positive bacteria in FACS) [10]: > 40%
anchoring efficiency (proportion of positive bacteria in FACS) [11]: 67.8%
anchoring efficiency (proportion of positive bacteria in FACS) [12]: 63.9%
anchoring efficiency (proportion of positive bacteria in FACS) [13]: 57.8%
anchoring efficiency (proportion of positive bacteria in FACS) [14]: > 52%
anchoring efficiency (proportion of positive bacteria in FACS) [15]: 58.4%
anchoring efficiency (proportion of positive bacteria in FACS) [16]: 52.3%
anchoring efficiency (proportion of positive bacteria in FACS) [17]: 46.5%
anchoring efficiency (proportion of positive bacteria in FACS) [18]: 34.2%
anchoring efficiency (proportion of positive bacteria in FACS) [19]: 6 to 7%
